Laboratory results from patent publication US20240200091A1, “USE OF PROTOPORPHYRINOGEN OXIDASE” (BEIJING DABEINONG BIOTECHNOLOGY CO., LTD., priority 2021, published 2024).

B1: PPO9A: nucleotide sequence encoding microbial protoporphyrinogen oxidase PPO9 (SEQ ID NO:9), Arabidopsis thaliana/soybean common codon usage bias (nucleic acid)
DNA: ATGGAGAAAGTTCTTCTACTGCATTCTTCCTCTGATGGTCAGACAGTGAAGATTCTCAGACATATTGAAACAACATTAGGTGGTGATTACCAATGTGAGCTTGTGGATTTGAATACTCTGCCGACTGTTGATTTTGCTGATTATGACCGTGTCTTAGTAGGCGCGAGTATACGCTATGGGCACCTCAACAAGAAACTCTACCAGTTTATAGAGAGATACAGAGATGAATTGGACCAAAACAAAGTAGGTTTCTTCTGCGTGAATCTTACTGCAAGGAAAGAAGGAAAGAATACGCCTGAGACTAGCGTTTACATGAAGACCTTTTTGAAGAAGTCGCCATGGTGTCCAAAATTGCAAGAAGTTTTCGCTGGAGCTCTTCGTTATCCTCGGTATGGATGGTTTGATAGGGTCATGATTCAGTTCATCATGAGAATCACGGGGGGAGAAACCGACACATCAAAAGAGGTTGAGTATACTGATTGGCAAAAGGTTGAAGCTTTTGCAGCCCGATTCAAACATTACTGA
modifications: The nucleotide sequence of PPO9A
B2: PPO5A: nucleotide sequence encoding microbial protoporphyrinogen oxidase PPO5 (SEQ ID NO:5), Arabidopsis thaliana/soybean common codon usage bias (nucleic acid)
DNA: ATGAAGACTCTTATCCTCTACTTCACAACAGACGGCCAAACGAAAAAGATTGCCGAGAGACTGGCTGATGTGATTACTCATGAAGTGGAGCTAATCTCCTTGAAAGATCAAGCTGTTGATTTTGCTCAGAAGATGGCTAATGTTGACCAAGTAGTCATTGGAGCGAGTATAAGGTATGGTCACTTCAGCCCTCTTGTTTATCAGTTTATTGAACAACATTATGCAATGTTGAATGAGAAGAAAACCGCTTTTTATGGAGTGAATCTCACAGCAAGGAAAGCAAATCGAAACACCCCAACCACAAATACTTACATCCGGAACTTCTTAGCAAAGGTGAAATGGCAACCTAACTATGTTGAGGTCATAGCTGGTGCCTTGTTTTACCCGCGTTACAGATTCATTGATAGAATGATGATTCGCTTCATCATGAAAGTAACGAAAGGAGAAACTGATGTTTCAAAAGAATATGAATACACAAACTGGCAGCAAGTTGAAGAGTTTGGGAAGAAGCTTTCTGATCAGTTAATATGA
modifications: PPO5A Nucleotide Sequence
B3: PPO7A: nucleotide sequence encoding microbial protoporphyrinogen oxidase PPO7 (SEQ ID NO:7), Arabidopsis thaliana/soybean common codon usage bias (nucleic acid)
DNA: ATGGATAAGATATTAGTCCTGTACAGTAGTCAAGATGGGCAGACGAGGAAGATTGTTGATGCAATGCTTGAAGAAATCTCTGGTTGTGATGTTGTGATTCAAGACTTGCACACACTACCGAAATGCAACCTATCCAAATATGCGAAAGTGTTGATTGGTGCTTCCATAAGGTATGGAAACTTCCATCCTTCTCTTCTCAGCTTCATCAATGCTCATCATGAACAACTTGAGGTTGCTAATGCGGCCTTCTTCTGTGTAAATCTCACTGCCCGAAAACCTGAGAAGCAAACTCCCCAGACAAACGCTTACATGAAGAAGTTTTTACGCTTATCACCATGGAAACCAAAGACCCTTGGAGTGTTTGCAGGAGCTTTGCAATATTCAAGATACAATTGGTGGCAAACCCGTATCATTCAGCTGATAATGAAAATGACTGGTGGCTCAACAGACACATCTCAGGATTTGGAGTTTACTGATTGGGTTAAAGTCCGGTCGTTTGCAAGAGAATTTTGGAGCAAGAGATGA
modifications: The nucleotide sequence of PPO7A

How the values were obtained:
Assay type in all cases: in vivo
Details in all cases: 7 DAT, number of plants of 24 per genotype, grades
[1] = system: Arabidopsis thaliana T1 plants; test: oxyfluorfen tolerance of transgenic Arabidopsis thaliana T1 plants (spray, grade of pesticide damage)
Outline: (§1)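 Glufosinate-selected T1 lines expressing PPO variants, with control-vector and wild-type plants (24 per genotype), were sprayed 18 days after sowing with saflufenacil 25 or 100, sulfentrazone 450 or 900, flumioxazin 60 or 240, or oxyfluorfen 180 or 720 g ai/ha, or water. Injured/total leaf area was graded 0–3 at 7 DAT.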

[2] = system: Arabidopsis thaliana T1 plants; test: saflufenacil tolerance of transgenic Arabidopsis thaliana T1 plants (spray, grade of pesticide damage)
Outline: as §1

[3] = system: Arabidopsis thaliana T1 plants; test: flumioxazin tolerance of transgenic Arabidopsis thaliana T1 plants (spray, grade of pesticide damage)
Outline: as §1

[4] = system: Arabidopsis thaliana T1 plants; test: sulfentrazone tolerance of transgenic Arabidopsis thaliana T1 plants (spray, grade of pesticide damage)
Outline: as §1

Molecule | The grade of pesticide damage/plant: grade 0 ([1]; oxyfluorfen 180 g ai/ha (1×)) [plant] | The grade of pesticide damage/plant: grade 1 ([1]; oxyfluorfen 180 g ai/ha (1×)) [plant] | The grade of pesticide damage/plant: grade 2 ([1]; oxyfluorfen 180 g ai/ha (1×)) [plant] | The grade of pesticide damage/plant: grade 3 ([1]; oxyfluorfen 180 g ai/ha (1×)) [plant] | The grade of pesticide damage/plant: grade 0 ([1]; oxyfluorfen 720 g ai/ha (4×)) [plant] | The grade of pesticide damage/plant: grade 1 ([1]; oxyfluorfen 720 g ai/ha (4×)) [plant] | The grade of pesticide damage/plant: grade 2 ([1]; oxyfluorfen 720 g ai/ha (4×)) [plant] | The grade of pesticide damage/plant: grade 3 ([1]; oxyfluorfen 720 g ai/ha (4×)) [plant] | The grade of pesticide damage/plant: grade 0 ([2]; saflufenacil 25 g ai/ha (1×)) [plant] | The grade of pesticide damage/plant: grade 1 ([2]; saflufenacil 25 g ai/ha (1×)) [plant] | The grade of pesticide damage/plant: grade 2 ([2]; saflufenacil 25 g ai/ha (1×)) [plant] | The grade of pesticide damage/plant: grade 3 ([2]; saflufenacil 25 g ai/ha (1×)) [plant] | The grade of pesticide damage/plant: grade 0 ([2]; saflufenacil 100 g ai/ha (4×)) [plant] | The grade of pesticide damage/plant: grade 1 ([2]; saflufenacil 100 g ai/ha (4×)) [plant] | The grade of pesticide damage/plant: grade 2 ([2]; saflufenacil 100 g ai/ha (4×)) [plant] | The grade of pesticide damage/plant: grade 3 ([2]; saflufenacil 100 g ai/ha (4×)) [plant] | The grade of pesticide damage/plant: grade 0 ([3]; flumioxazin 60 g ai/ha (1×)) [plant] | The grade of pesticide damage/plant: grade 1 ([3]; flumioxazin 60 g ai/ha (1×)) [plant] | The grade of pesticide damage/plant: grade 2 ([3]; flumioxazin 60 g ai/ha (1×)) [plant] | The grade of pesticide damage/plant: grade 3 ([3]; flumioxazin 60 g ai/ha (1×)) [plant] | further results
B1 | 24 | 0 | 0 | 0 | 20 | 4 | 0 | 0 | 24 | 0 | 0 | 0 | 0 | 24 | 0 | 0 | 24 | 0 | 0 | 0 | The grade of pesticide damage/plant: grade 0 ([3]; flumioxazin 240 g ai/ha (4×)): 24 plant; The grade of pesticide damage/plant: grade 1 ([3]; flumioxazin 240 g ai/ha (4×)): 0 plant; The grade of pesticide damage/plant: grade 2 ([3]; flumioxazin 240 g ai/ha (4×)): 0 plant; The grade of pesticide damage/plant: grade 3 ([3]; flumioxazin 240 g ai/ha (4×)): 0 plant; The grade of pesticide: grade 0 ([4]; sulfentrazone 450 g ai/ha (1×)): 24; The grade of pesticide: grade 1 ([4]; sulfentrazone 450 g ai/ha (1×)): 0; The grade of pesticide: grade 2 ([4]; sulfentrazone 450 g ai/ha (1×)): 0; The grade of pesticide: grade 3 ([4]; sulfentrazone 450 g ai/ha (1×)): 0; The grade of pesticide: grade 0 ([4]; sulfentrazone 900 g ai/ha (2×)): 18; The grade of pesticide: grade 1 ([4]; sulfentrazone 900 g ai/ha (2×)): 6; The grade of pesticide: grade 2 ([4]; sulfentrazone 900 g ai/ha (2×)): 0; The grade of pesticide: grade 3 ([4]; sulfentrazone 900 g ai/ha (2×)): 0
B2 | 24 | 0 | 0 | 0 | 22 | 2 | 0 | 0 | 24 | 0 | 0 | 0 | 0 | 24 | 0 | 0 | 24 | 0 | 0 | 0 | The grade of pesticide damage/plant: grade 0 ([3]; flumioxazin 240 g ai/ha (4×)): 21 plant; The grade of pesticide damage/plant: grade 1 ([3]; flumioxazin 240 g ai/ha (4×)): 3 plant; The grade of pesticide damage/plant: grade 2 ([3]; flumioxazin 240 g ai/ha (4×)): 0 plant; The grade of pesticide damage/plant: grade 3 ([3]; flumioxazin 240 g ai/ha (4×)): 0 plant; The grade of pesticide: grade 0 ([4]; sulfentrazone 450 g ai/ha (1×)): 24; The grade of pesticide: grade 1 ([4]; sulfentrazone 450 g ai/ha (1×)): 0; The grade of pesticide: grade 2 ([4]; sulfentrazone 450 g ai/ha (1×)): 0; The grade of pesticide: grade 3 ([4]; sulfentrazone 450 g ai/ha (1×)): 0; The grade of pesticide: grade 0 ([4]; sulfentrazone 900 g ai/ha (2×)): 20; The grade of pesticide: grade 1 ([4]; sulfentrazone 900 g ai/ha (2×)): 4; The grade of pesticide: grade 2 ([4]; sulfentrazone 900 g ai/ha (2×)): 0; The grade of pesticide: grade 3 ([4]; sulfentrazone 900 g ai/ha (2×)): 0
B3 | 24 | 0 | 0 | 0 | 20 | 4 | 0 | 0 | 24 | 0 | 0 | 0 | 4 | 20 | 0 | 0 | 24 | 0 | 0 | 0 | The grade of pesticide damage/plant: grade 0 ([3]; flumioxazin 240 g ai/ha (4×)): 24 plant; The grade of pesticide damage/plant: grade 1 ([3]; flumioxazin 240 g ai/ha (4×)): 0 plant; The grade of pesticide damage/plant: grade 2 ([3]; flumioxazin 240 g ai/ha (4×)): 0 plant; The grade of pesticide damage/plant: grade 3 ([3]; flumioxazin 240 g ai/ha (4×)): 0 plant; The grade of pesticide: grade 0 ([4]; sulfentrazone 450 g ai/ha (1×)): 24; The grade of pesticide: grade 1 ([4]; sulfentrazone 450 g ai/ha (1×)): 0; The grade of pesticide: grade 2 ([4]; sulfentrazone 450 g ai/ha (1×)): 0; The grade of pesticide: grade 3 ([4]; sulfentrazone 450 g ai/ha (1×)): 0; The grade of pesticide: grade 0 ([4]; sulfentrazone 900 g ai/ha (2×)): 22; The grade of pesticide: grade 1 ([4]; sulfentrazone 900 g ai/ha (2×)): 2; The grade of pesticide: grade 2 ([4]; sulfentrazone 900 g ai/ha (2×)): 0; The grade of pesticide: grade 3 ([4]; sulfentrazone 900 g ai/ha (2×)): 0
